Measured values taken from patent publication US20260274955A1 (JANUX THERAPEUTICS, published 2026).

Target: anti-CD28 Fab (SEQ ID NOs: 202, 203)
Assay: phage ELISA, Fab on plate;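 further: ELISA of crude clonal phage supernatants on the plate, wells preloaded with CD28 antigen or only blocking buffer, captured phage read out via HRP-linked anti-M13 antibody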
Protocol: (§1) After panning, phage infected bacteria were plated out and colonies picked into 96 well blocks. Clonal phage was then amplified and separated from bacterial cells via centrifugation.
(§2) Clonal phage were harvested as crude supernatants and screened via standard ELISAs. […] Prior to the addition of clonal phage, wells were incubated with blocking buffer and CD28 antigen or blocking buffer alone. Without washing or aspirating, clonal phage supernatants were then added to the wells and incubated for a short time. Wells were then washed followed by detection of bound phage using a horse radish conjugated anti-M13 antibody. Clonal phage of interest were then sent for sequence analysis.

Chain of anti-CD28 Fab (SEQ ID NOs: 202, 203) (VH, as listed by the source, chain 1 of 2): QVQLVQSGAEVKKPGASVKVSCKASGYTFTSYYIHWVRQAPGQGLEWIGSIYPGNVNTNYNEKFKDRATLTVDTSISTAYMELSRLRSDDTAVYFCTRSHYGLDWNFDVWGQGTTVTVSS
Chain of anti-CD28 Fab (SEQ ID NOs: 202, 203) (VL, as listed by the source, chain 2 of 2): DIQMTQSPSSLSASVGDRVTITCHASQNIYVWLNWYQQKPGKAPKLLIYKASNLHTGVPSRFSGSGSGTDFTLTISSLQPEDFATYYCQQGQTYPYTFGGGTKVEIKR

Binder	Anti-CD28 Fab signal
LCAAGAAWEWPMCF [Phage-1167]	1.3
TCEDGFHFSWPECF [Phage-1123]	1.44
SCAAGATYVWPMCF [Phage-1127]	1.42
SCSAGAMYTWPTCL [Phage-1166]	1.31
SCADGAIWEWPWCF [Phage-1164]	1.32
TCTAGFSYKWPTCL [Phage-1174]	1.28
NCAAGAMYSWPTCL [Phage-1178]	1.25
SCAAGAMWEWPKCF [Phage-1163]	1.32
TCAAGAVWTWPICF [Phage-1183]	1.23
TCSAGATYSWPYCL [Phage-1186]	1.22
SCAAGATYSWPACL [Phage-1177]	1.25
LCAAGATYPWPDCV [Phage-1188]	1.21
TCAAGATYMWPVCL [Phage-1180]	1.24
SCSAGATYTWPACL [Phage-1158]	1.34
RCAAVFSYTWPPCL [Phage-1171]	1.29
TCAAGANWPWPECL [Phage-1189]	1.21
SCAEVFNYVWPFCF [Phage-1161]	1.32
TCAAGATYEWPSCL [Phage-1165]	1.32

Binder	Anti-CD28 Fab signal
TCSAGASWGWPWCL [Phage-1185]	1.22
SCAAGAHYPWPECL [Phage-1160]	1.32
TCSAGATYMWPACF [Phage-1120]	1.44
TCSAGATYAWPACF [Phage-1121]	1.44
TCSAGATYKWPACF [Phage-1172]	1.29
LCAAGAYYPWPLCF [Phage-1173]	1.28
SCAAGATWKWPECL [Phage-1181]	1.24
TCADGAFWQWPVCL [Phage-1184]	1.22
QCSAGATYAWPFCL [Phage-1168]	1.29
WCGVGMDWRWPECL [Phage-1122]	1.44
SCAAGATYTWPFCL [Phage-1170]	1.29
TCAAGAHYSWPFCM [Phage-1128]	1.42
TCAAGAAYTWPVCF [Phage-1162]	1.32
TCAAGVPYKWPPCL [Phage-1169]	1.29
WCDQFFHYKWPLCL [Phage-1126]	1.42
TCAAGATWLWPWCL [Phage-1182]	1.23
TCSAGAHYSWPKCF [Phage-1159]	1.33

Target: anti-CD28 Fab (SEQ ID NOs: 202, 203)
Assay: phage ELISA, Fab on plate, CD28 antigen as competitor;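 further: wells pre-incubated with CD28 antigen in blocking buffer (reference: blocking buffer only) before adding crude clonal phage supernatant, bound phage read with HRP-coupled anti-M13 antibody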
Protocol: as §1, §2

Binder	Anti-CD28 Fab signal in the presence of CD28
LCAAGAAWEWPMCF [Phage-1167]	0.06
TCEDGFHFSWPECF [Phage-1123]	0.07
SCAAGATYVWPMCF [Phage-1127]	0.07
SCSAGAMYTWPTCL [Phage-1166]	0.08
SCADGAIWEWPWCF [Phage-1164]	0.07
TCTAGFSYKWPTCL [Phage-1174]	0.09
NCAAGAMYSWPTCL [Phage-1178]	0.07
SCAAGAMWEWPKCF [Phage-1163]	0.09
TCAAGAVWTWPICF [Phage-1183]	0.05
TCSAGATYSWPYCL [Phage-1186]	0.07
SCAAGATYSWPACL [Phage-1177]	0.07
LCAAGATYPWPDCV [Phage-1188]	0.05
TCAAGATYMWPVCL [Phage-1180]	0.07
SCSAGATYTWPACL [Phage-1158]	0.07
RCAAVFSYTWPPCL [Phage-1171]	0.07
TCAAGANWPWPECL [Phage-1189]	0.08
SCAEVFNYVWPFCF [Phage-1161]	0.07
TCAAGATYEWPSCL [Phage-1165]	0.09

Binder	Anti-CD28 Fab signal in the presence of CD28
TCSAGASWGWPWCL [Phage-1185]	0.07
SCAAGAHYPWPECL [Phage-1160]	0.05
TCSAGATYMWPACF [Phage-1120]	0.1
TCSAGATYAWPACF [Phage-1121]	0.08
TCSAGATYKWPACF [Phage-1172]	0.05
LCAAGAYYPWPLCF [Phage-1173]	0.06
SCAAGATWKWPECL [Phage-1181]	0.07
TCADGAFWQWPVCL [Phage-1184]	0.07
QCSAGATYAWPFCL [Phage-1168]	0.08
WCGVGMDWRWPECL [Phage-1122]	0.16
SCAAGATYTWPFCL [Phage-1170]	0.07
TCAAGAHYSWPFCM [Phage-1128]	0.07
TCAAGAAYTWPVCF [Phage-1162]	0.08
TCAAGVPYKWPPCL [Phage-1169]	0.06
WCDQFFHYKWPLCL [Phage-1126]	0.07
TCAAGATWLWPWCL [Phage-1182]	0.07
TCSAGAHYSWPKCF [Phage-1159]	0.07
